Measurements: the DeepSol protein solubility set

Assay: soluble on expression in E. coli; label from the status in PepcDB or PDB records

Soluble on expression in E. coli, soluble:
MTKVDFWPTLKDAYEPLYPQQLEILRQQVVSEGGPTATIQSRFNYAWGLIKSTDVNDERLGVKILTDIYKEAESRRRECLYYLTIGCYKLGEYSMAKRYVDTLFEHERNNKQVGALKSMVEDKIQKETL
MSKLEELDIVSNNILILKKFYTNDEWKNKLDSLIDRIIKAKKIFIFGVGRSGYIGRCFAMRLMHLGFKSYFVGETTTPSYEKDDLLILISGSGRTESVLTVAKKAKNINNNIIAIVCECGNVVEFADLTIPLEVKKSKYLPMGTTFEETALIFLDLVIAEIMKRLNLDESEIIKRHCNLL
MNTFKETLFSLKKSNYLLNESAQILNDCVVNNNEIDERLRNSIKFALGIINLASYCLKNEQEQLDHELNHGNEAPWEFSFNEAEQLIECTVKNNFGNEKLVDLIFHIGDAMETYRTTNIKFRVPKSYYDAKQQIRKVIKN

Soluble on expression in E. coli, not soluble:
MGSDKIHHHHHHMHININMDWLSAKGLPILGLDISTTAIKLVELSDAGKGMLRVERYIIEPLPKDAVSDGNIANLDQVADTLRHAWKTLGSRVKNVALALPSSAVITKKILAPASLTGIELENQVEAEANQVIPFALDEVNLDFQVLGPSPGSPDDMQILLAAARKEKVEDRVAAVEAAGLKALIMDVESYATQAAYEQIAHLLPNGGAGQTVAIIDVGAQNMHINILNDNESVYLREHGFGGNQLNNEIARRYGMSGEEAENAKRKGSLPESYELEVLQPYSETLAMEIGRALQLFTTSTQYRKIDQILLAGGGAMIPGLDEVVAQRTGTPTLVVNPFANMAVASKVRPQALTADAPSLFVACGLAMRRFDSQ
MSEQYTTGVVVTGKVTGIQDYGAFVALDAETQGLVHISEITNGYVKDIHDFLKVGDTVEVKVLSIDEEHRKMSLSLKAAKRKQGRILIPNPSENGFNTLREKLTEWIEESELTK
MAYFTAKRASSMGASTVPSGNDHLLEALTLCDCILSRYKRCGVQLNDAEAAAFANLQQRISSISGHAADAACPAGATRKQSQELGLHEYAQLAQRCLIFQNPLAQIVATINEEFSKLVSCSVRTHYANTNDAVLCDPVHDTVATIDTSTPIGRCAKTKTTVTISDTVYIPLCYNSHVVGCLEVESTAIDTSTPFFGYLLQVAALTLQNATSIDTLRWETRKAEAMVGMATRLARDTLEESVLVQSIINTAKTLTESDRCSIFLVKADGSLEAHFEDGNVVVLPAGTGIAGHVAESGAVVNIPNAYEDDRFHRSVDKVTGYHTRTILCLPIAFEGTIVAVAQLINKLDMVTQSGQRLPRVFGRRDEELFETFSMFAAASLRNCRINETLLKEKKKSDAILDVVALLSNTDIRDVDSIVRHVLHGAKKLLNADRSSMFLLDKERNELYSKMADSANEIRFPCGQGIAGTVAESGVGENIMDAYADSRFNSAVDRQLGYRTQSILCEPITLNGEVLAVVQLVNKLGDDGSVTCFTPTDQETFKVFSLFAGISINNSHLLEFAVNAGREAMTLNLQRNSITAQRAPKSVKVIAVTPEEREAVMSIDFGGAYDFTSPGFNLFEVREKYSEPMDAAAGVVYNLLWNSGLPEKFGCREQTLLNFILQCRRRYRRVPYHNFYHVVDVCQTLHTYLYTGKASELLTELECYVLLVTALVHDLDHMGVNNSFYLKTDSPLGILSSASGNNSVLEVHHCSLAIEILSDPAADVFEGLSGQDVAYAYRALIDCVLATDMARHGDLSRVFDDMAKAGYDSNDQESRRLVMETLIKAGDVSNVTKPFETSRMWAMAVTEEFYRQGDMEKEKGVEVLPMFDRSKNNELARGQIGFIDFVAGKFFRDIVGNLFHGMQWCVDTVNSNRAKWQEILDGRRDSIRPSIV
MIHTEPSAQPSTMDTAAFLKHIESAFRRIFSDGIDLMRYLPEDKWLALKQAGLLLPFLDKKYGGRKGSQFEIQEVLRIAGHYGVPVTLRTGIEGALVLQPLQEFGDEAQVAQGLEMIFKGEGGGLGVTEPETSGAAIAREMQSYYEYIDGQTIYVNAAKYWQGNSQSDFLLVAAKERKNGKLAKVIDLLLVPKTYIRCETLASEGLRAVRYAVNRIDAEMPATAVMKLSQSDAAGLRAFQNIFIRSRLQLIGMTHGIMEYILENLERYVRNDIKFVDYERREIRRRHQVSEILYRYVCHSVSPVAPVAHQLMEANIVKTLATEYTYAAAQMLQKLLGAKGFERGHTAGNIAIDIRPFTIFEGPNDMLYAEIYDQFVRATAEEKEAGMKLDKNQTLLDRLQTDARFAAVARDYTLPEDIRSFLQEHTLTDACALQKVFIGKIIARLFVFVQAKHEDTAAFLLNDIRKDILDCRYCG
MNVANNNCGQMLSDSSESSEPPRAQAGAVFGKKDKGKKADTKKKNTATEGSKRVKKEKKKDDGEAAKGDPTNKTNMTPAPPQTHPIVEQWVLRALDVGVDKLREEFRGLAKYTRPDMTQVMFNANQSPDIAITKNRYQDVPCQDQSAVKLDQPSPCNYIHANYVGCPMIPEKRFICAQGPLDQTIDEFWWMVIQNKVEQIVMLCKTVEMGKLKCAQYWPAAQGEKLTLKSGCVVENVSGSKPMERDPEIQITMLNLTYSGGQTMSVRHLQWTEWPDRGVPPCKLTSLELLSAIRGSKVPIVVHCSAGIGRTGTIVAIEYILEKIAENKPCPPMPELVKALRDQRAFSIQNDVQYLFIHRVMLNYFLEKYKEKYAALLTAENVAKYDKFIKDYNAAVGQ
FPPRIVNPVVTPVTDTLTDTTDTKEYAVQTAIPDQRKVARPRADALRNRERIVLAAREMFVEHGPDVPLDDVARRAGVGNATVYRNFPDRDALVREVVCSVMDRTARAAELALAETGDAFEALERFVHASADERISALCPMVASTFDQHHPDLEAARGRVERLVAEVMDRAKAAGQLRGDVGVGDLMIAAAQLSRPPAGTGCVNADRFVHRHLQLFLDGLRAPARSVLPGAAVTLEDLRRPCDQ
MVKNVAVIVDSSFYIPKEEQQKYNIYVIPTPIIFNGRIKYDSDWSSAAKFFKDMNSAKKMPSTSMASPADVLKAFEQVRADGYRQAILMTMASGISGFYNMAVNLANDYQELDVQVWDSKFTLMISGVQALLAAELSAQGITREEIMKKVALLRDSTRVFIVVDDISHLKRTGRLAGGAALVAGLLNIKPILVFNKASKIVAIGKERQMKRAWNWLLKQYAIDAPDFDRPIRVLFADANNRALTENWQADFHEKYPDVITDFIPIGPLIGVHTGEKAVGFVYMDDWKDIARHH
MSNVAKSYKSSDPVIAYCSEHTTIQSPLQAELLKETLDNAPMSMMLGAPEVLTFGQNFIRSFGGRRVIDVGTYTGASALAWALAVPDDGEVFTFDIDHTNYKKFGVPIISKCEKTFKKIRAIEGSALDGLDKLIADGQSGTFDFAFIDADKVNYSNYYDRAVTLLRKGGVIFVDNSLWNGSVCDPARRTEPSTVAIHQANDKIFKDDRTYSALINLGDGTHIAFKK
MSLVINAPFKVIASKVTAEVLKSVNSKLGSYSTNYATSSEARATNVAVATRSIDGKVVMPGETFSFNEVVGERTRARGYKEAGVIVNQKLESGFGGGVCQVSSTLYNALLRSNIKMTERVHHTFPSSYVPTGLDATVDWGNIDLKFKNTFKYPIYIQGYTGGREVGFNIYSNSELAREGHHHHHH
LPKVSEDHLAARRSQILDGARRCFAEYGYDGATVRRLEEVTGLSRGAIFHHFKDKDGLFLALAHEDATRMADVVAHEGLVQVMRDMLAQPEQFDWLGTRLEIARRLRNDPDFRRSWSQRSAELTEATMARLARQKSAGRLRDDVPTDVLIGYLDLVLDGLVARIASGHAGDNLSAVLDLVEESVRRRD
MGSDKIHHHHHHMEIDPRAQLIEWESSSLGVKGRMYVYTPPEYHPHGPALPVVYLLRGHEREWVNRREDDSRMGSAIDVYERVRARGEIGPLILAMPGLASTDNRIPGLLADFAAPHLTDAEGIGSGRFATFFFEEVLPLLEREFHAHPQARAITGFSLGGYMAVKAVALHPELFVSVSAYDGSFPYASDNGRRSRRYDTLFTASMFDPALGRPRDPDRLRDHNPICLLMRANRAALRRITWMIQYGPEHIEPWGANFYRGEYLLRALATLGIANATPIAALPDGAHTWAVADRHLEQALPLHYRAFERVMKSDP
